# Assay: yeast display, Sf9 membrane polyspecificity reagent, FACS + sequencing; frameworks hold sequencing errors
# How it was run: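 Galactose-induced (36–48 hours) yeast carrying a synthetic nanobody display library were exposed to 10% biotinylated, detergent-solubilized Sf9 membrane reagent at 4 °C for 1 hour. FACS followed streptavidin microbead enrichment, using low and high (top ~1%) gates for expression (anti-HA) and reagent binding (streptavidin). Colony PCR, MiSeq 2 × 250 sequencing and CDR-length filtering followed. Labels for polyreactivity reflect the gate of origin.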
row,Sequence,polyreactivity (PSR sort gate)
1,QVQLVESGGGLVQAGGSLRLSCAASGSTFVYNVMGWYRQAPGKERELVAAIRWRGGSTYADSVKGRFTISRDNAKNSVYLQMTSLKPQDTAVYYSNTGHEEDEYDYWGQGTQVTVSS,low polyreactivity
2,QVQLVESGGGLVQAGGSLRLSSAASGRTFDRNAMGWYRQAPGKERELVAGITRSGDSTYADSVKGRFTISRDNAKITVYLQMNSLKPEDTAVYYCNKEGTVGGTRGYWGQGTQVTVSS,low polyreactivity
3,QVQLVESGGGLVQAGGSLRLSCAASGNIFRIYAMGWYRQAPGKERALVAAITSRGAITNYADSVKGRFTISRDYAKNTVYLQMISLKPEDTAVYYCAASYRRLTGVGADEYWGQGTQVTVSS,high polyreactivity
4,QVQLVESGGGLVQAGGSLRLSCAASGRTFPYNAMGWYRQAPGKERELVAAISGRGGSTYYADSVKGRFTISRDNAKNTVYLQMNSLKPEDTAVYYCAARLPWSYYRTQGYNYWGQGTQVTVSS,high polyreactivity
5,QVQLVESGGGLVQAGGSLRLSCAASGSIFHHNAMGWYRQAPGKERELVAAISSRSGNTYYADSVKGRFTISRDNAKNTVYLQMNSLKPEDTAVYYCAAGKRLSYSTYDSWGQGTQVTVSS,high polyreactivity
6,QVQLQESGGGLVQAGGSLRLSCAASGTISPLPAMGWYRQAPGKEREFVAGIDTGAITNYADSVKGRFTISRDNAKNTVYLQMNSLKPVDTAVYYCAVFPAAYDYYERYYTYWGQGTQVTVSS,low polyreactivity
7,QVQLVESGGGLVQAGGSLRLICAASGGIFTRNDMGWYRQAPGKERELVAGISWRGGSTYYADSVKGRFTISRDNAKNTVYLQMNSLKPEDTAVYYCAALDTGGERDYWGQGTQVNVSS,low polyreactivity
8,QVQLVDTGGGLVQAGGSLRFSCAASGSIFQVYAMGWYRQAPGKERELVASITSSGGSTYYADSVKGRFTISRDNAKNTVYLQMNSLKTEDTAVYYCADDQWSQDYDYWGQGTQVTVSS,low polyreactivity
9,QVQLVESGGGLVQAGGSLRLSCAASGSTFYLYAMGWYRQAPGKERELVAAISWSGGDTYYADSVKGRFTISRDNANNTVYLQMTSLKPEDSAVYYCAAEITYSYPGSPRRRDYWGQGTQVTVSS,low polyreactivity
10,QVQLVESGGGLVQAGGSLRLSCAASGRTFPFYAMGWYRQAPGKERELVAAISISGGSTYYADSVKGRFTISRDNAKNTVYLLMNSLKPEDTAVYYCATDGLYLSWQYSWEELYYWGQGTQVTVSS,high polyreactivity
11,QVQLVESGGGLVQAGGSLRLSCAASGSTFYIYAMGWYRQATGKERELVAAIDWNDGSTYYADSVKGRFTISRDNAKNTVYLEMHSLKPEDTAVYYCAAAIYIYRDGTYDYWGQGTQETVSS,high polyreactivity
12,QVQLVESGGGLVQAGGSLGLSCAASGRIFGVYAMGWYRQAPGTERELVAAIWSGGSTYYADSVKGRFTISRDNAKNTVYLQMNSLKPEDTAVYYCAADDAYSHRSLYSHNDYWGQGTQVTVSS,low polyreactivity
13,QDQLQESGGGLEQARGSLRLSCAASGYISTFSSEMGWYRQAPGKELELVASIAPCCTTSYADSVKGRCTISRDNAKNTVYLQMNSLKPEDTSVYYCAVDYTVPASFGFRGQGTQVTVSS,high polyreactivity
14,QVQLVESGGGLVQAGCSLRLSCAASGSNFYRNSMRWYRQAPGKERELVAGITTRGGSTYYADSVKGRFTISRDNAKNTVYLQMNSLKPEDTEVYYCNARSYTGSYFKYYYWGQGTQVTVSS,high polyreactivity
15,QVQLVESGGGLVQAGGSLRLSCAASGSTFFPNAMGWYRQAPGKERELVAAIRWRGGTYYADSVKVRFTISRDNAKNTVYLQMNSLKPEDTAVYYCATSVKPSYDYWGQGTQVTVSS,low polyreactivity
16,QVQLVESGGGLVQAGGSLRLSCAASGLIFKTYTMGWYRQAPGKEREFVAAITTSGGSTYYADSVKGRFTISRDNAKNTVYLQMNSLKPEDTAVYYCAAVWWKSFQGSSYRMNYWGQGTQVTVSS,high polyreactivity
17,QVQLVESGGGLVQAGGSLRLSCAASGYTFGSNAMGWYRQAPGKERELVAAIRYRGDRTYYADSVKGRFTISRDNAKNTVYLQMNSLKPEDTAVYYCAATYGYNTLYRPLRFDYWGQGTQVTVSS,high polyreactivity
18,QVQHVESGGGLVQAGRSLRLSCAASGFIFRYSAMGWYRPAPGKERELVATITGRGGSTYYADSVKGRFTISRDNAKNTVYLQMNSLIPEDTAVYYCAARARYSPAPYDYWGQGTQVTVSS,high polyreactivity
19,QVQLVESGGGLVQAGGSLRLSCAASGFAFGVYAMGWDRQAAGKERELVAAITRSGGSTYYADSVKGRFTISRDNAKNTVYLQMNSLKPEDTAVYYCAARARDHYGYWGQGTQVTVSS,high polyreactivity
20,QVQLVESGGGLVQAGGSLSLSCAASGSNFSENTMGWYRQAPGKKRELVADITSGGSTNYADSVKGRFTISRDNAKNTVYLQMNSLKPEDTAVYYCAADYHGEYDYWGQGTLVTVSS,low polyreactivity
21,QVQLVESGGGLVQAGGSLRLSCAASGRIFVRYAMGWYRQAPGKERELVAAISYRGGSTYYADSVKGRFTISRDNAKNTVYLLMNSLKPEDTAVYYCAARNSYGNWSYYYWGQGTQVTLSS,high polyreactivity

row,Sequence,polyreactivity (PSR sort gate)
1,QVQLVESGGGLVQAGGSLRLSCAASGFIFQRYAMGWYRQAPGKERELVAAISSSGGRTSYADSVKGRFTISRDNAKNTVYLQMNSLKPEDTAVYYCAAYPQGRWYVVWSGDYWGQGTQVTVSS,high polyreactivity
2,QVQLVESGGGLVQAGGSLRLSCAASGSTFNQYTMGWYRQAPGKERELVAAISKSGGSTYYADSVKGRFTISRDNAKNTVYFQMNSLKPEVTAVYYCAADRYYDYRVDYWGQGTQVTVSS,high polyreactivity
3,QVQRVESGGGLVQAGGSLRLSCAASGRTFWTNAMGWYRQAPGTERELVAAISGSGGSTYFADSVKGRFTISRDNAKNTVYLQMNSLKPEDTAVYYCAAYSRFRYDYWGQGTQVTVSS,high polyreactivity
4,QVQLVESGGGLVQAGGSLRLSCAASGSIFLSNAMGWYRQAPGKERELVAAISRRGASTYYADSVKGRFTISRDNAKNTVYLQMNSLKPEDTAVYYCAARSYSAYGYNYWGQGTQVTVSS,high polyreactivity
5,QVQLVESGGGLVQAGGSLRLSCAASGRTFNYYAMGWYRQAPGKERELVATITFSGDGSTYYAHSVKGRFTISRDNAKNTVYLHMNSLKPEDTAVYYCTADIEKSYNYWGQGTQVTVSS,low polyreactivity
6,QVQLVESGGGLVQAGGSLRLSCAASGIIFVSYAMGWYRQAPGKERELVADITSGGRTYYADSVKGRFTISRDNAKNTVYLQMNSLKPEDTAVYYCAATYSYKGRWVWVYYWGQGTQVTVSS,high polyreactivity
7,QVQLVESGGGLVQAGGSLRLSCAASASIFYIYAKGSYRQAPGKARELVAVIRNGGRTNYADSVKGRFTISRDNAKNTVYFQMNSLKPEDTAVYYCAARPRHVTRFDYWGQGTQVTVSS,high polyreactivity
8,QVQLVESGGGLVQAGGSLRLSCAASGSTFHRNAMGWYRQAPGKERELVAAITSGGSTNYADSVKGRFTISRDNAKNTVYLQMNSLKPEDTAVYYCAKDYRHYNRGWYDYWGQGTQVTVSS,low polyreactivity
9,QVQLVDSGGGLVQAGGSLRLSCAASGSTFKIYAMGWYRQAPGKERELVARITSGGSTNYADSVKGRFTISRDNAKNTVYLQMNSLKPEDTAVYYCAARRWSYSTRGQRSSNLDYWGHGTQVTVSS,high polyreactivity
10,QVQLVESGGGLVQAGGSLRISCAPSGFTFGHYAMGWYRQAPGKERELVAAISYSGVRTYYADSVKGRFTISRDNAKNTVYLQMNSLKPEDTAVYYCNKYPAHYQTRRYDYWGQGTQVTVSS,high polyreactivity
11,QVQLVESGGGLVQAGGSLRLSCAASGQTIAAYVMGWYRQAPGKERELVARISRSGGSTYYADSVKGRFTISRDNAKNTVYLQMNSLKPEDTAVYYCAAARPYKTSLPGAPYDYWGQGTQVTVSS,low polyreactivity
12,QVQLVESCGGLVQAGGSLRLSCAASGSTFVYNSMGWYRQAPGKEREMVDAITWRGSTYYADSVKGRFTISRDNAKNTVYLQMNSLKPEDTAVYYCAARFSNLPEGVTYYYWGQGTQVTVSS,high polyreactivity
13,QVQIVESGGGLVQAGGSLRLSCAASGFIFGANAMGWYRQAPGKEREFVAAISSSGGRYELRRSVKGRFTISRDKAKNTVYLQMNSLKPEDTAVYYCATPYPTGRPRHYYWGQGTQVTVSS,high polyreactivity
14,QVQLVESGGGLLQAGGSLRLSCAASGSTISRYAMGWYRQAPGKERELVAAIRRNGDGTYYADSVKGRFTISRDNAKNTVYVQMNSLKPEDTAVYYCAARRFIPRFNYWGQGTQVTVSS,high polyreactivity
15,QFQLDESGGGLVQAGGSLRLSCAASGLTFSIYAMGWYRKARGKERELVAAITGRGGRTYYADSVKGRFTISRENAKNTVYLQMKSLKPEDTAFYYCADRYRGTDFDYWGQGTQVTVSS,high polyreactivity
16,QVQLVESGGGLVQAGGSLRLSCAASGRIFPVYVMGWYRQAPGKEREFVASISWRGGSTFYADSVKGRFTISRDNAKNTVYLQMNSLKPEDTAVYYCAADYWSSDSSRGTMYYWGQGTQVTVSS,low polyreactivity
17,QVQLVESGGGLVQAGGSLRLSCAASGNIFRSYAMGWYRQAPGKERELVAAISSSDDSTYYADSVKGRFTISRDNAKNTVYLQMNSLKPEDTAVYYCAADGWSWYKGYVGDDMDYWGQGTQVTVSS,low polyreactivity
18,QVQLVESGGGLVQAGGSLRLICAASGSIFDSYTMGWYRQAPGKERELVAAISKNGGSTYYADSVKGRFTISRDNAKNTVYFQMNSLKPEDTAFYYCARSRSGYRYDYWGQGTQVTVSS,high polyreactivity
19,QVQLLESWGGLVHAGGSLRLSCAASGRIIYRYAMGWSRQAPGNERELVAGISNAGGSTYYADSVKGRFTISRDNAKNTVYLQMNSLKPEDTAVYYCATGPSYRYDKGGGRSRYYYWGQGTQVTVSS,high polyreactivity
20,QVHLVESGGGLVQAGGSLRLSCAASGSIFKPYTMRWYRQAPGTERELVAVITRRGGSTYYADSVKGRFTISRDNAKNTVYLQMNSLKPEDTAVYYCAAEYDYYGWWNDYWGQGTQVTVSS,high polyreactivity
